Experimental data taken from PMC3229523, “Identification of Lactoferricin B Intracellular Targets Using an Escherichia coli Proteome Chip” (PLoS ONE, 2011).
Ends that are not written are not given here. * marks the point of attachment. Biotin = O=C1N[C@H]2[C@H](CS[C@H]2CCCCC(=O)*)N1

How the values were obtained:
Test in all cases: peptide or protein array; E. coli proteome chip: purified His-tagged proteins printed in duplicate on Fullmoon slides, blocked with 1% BSA; 10 nM N-terminal biotinylated LfcinB with 1% BSA, room temperature, 1 h; detected with DyLight 649-labeled streptavidin, ratio to DyLight 549-labeled anti-His antibody; ProCAT normalisation, local cut-off; triplicate chips
Details in all cases: both partners purified
YdaW = biological target: T1, YdaW (E. coli K-12, UniProt P76066 1-186)
T1 construct: YdaW, E. coli K-12
T1 sequence (looked up): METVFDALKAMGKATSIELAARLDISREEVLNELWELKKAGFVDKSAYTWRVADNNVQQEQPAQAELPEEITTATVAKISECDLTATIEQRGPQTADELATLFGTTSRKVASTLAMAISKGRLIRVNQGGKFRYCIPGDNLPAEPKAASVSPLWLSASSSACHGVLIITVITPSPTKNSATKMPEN

RplN = RplN (E. coli K-12, UniProt P0ADY3 1-123)
RhaR = biological target: T2, RhaR (E. coli K-12, UniProt P09378 1-282)
T2 construct: RhaR, E. coli K-12
T2 sequence (looked up): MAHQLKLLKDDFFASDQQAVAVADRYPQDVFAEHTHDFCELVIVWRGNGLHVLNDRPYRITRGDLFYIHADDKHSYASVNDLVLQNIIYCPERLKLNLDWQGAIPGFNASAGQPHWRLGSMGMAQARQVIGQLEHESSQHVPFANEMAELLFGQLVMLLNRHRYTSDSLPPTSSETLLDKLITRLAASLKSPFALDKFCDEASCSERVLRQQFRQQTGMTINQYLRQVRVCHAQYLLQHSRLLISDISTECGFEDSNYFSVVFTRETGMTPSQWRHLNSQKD

GloA = biological target: T3, GloA (E. coli K-12, UniProt P0AC81 1-135)
T3 construct: GloA, E. coli K-12
T3 sequence (looked up): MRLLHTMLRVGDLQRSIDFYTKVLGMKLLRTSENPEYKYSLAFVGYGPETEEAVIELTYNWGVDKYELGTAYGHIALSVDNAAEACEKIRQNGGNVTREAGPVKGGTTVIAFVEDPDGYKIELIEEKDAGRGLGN

Hha = biological target: T4, Hha (E. coli K-12, UniProt P0ACE3 1-72)
T4 construct: Hha, E. coli K-12
T4 sequence (looked up): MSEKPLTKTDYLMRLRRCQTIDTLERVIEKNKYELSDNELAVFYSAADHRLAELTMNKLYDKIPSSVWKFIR

DnaT = biological target: T5, DnaT (E. coli K-12, UniProt P0A8J2 1-179)
T5 construct: DnaT, E. coli K-12
T5 sequence (looked up): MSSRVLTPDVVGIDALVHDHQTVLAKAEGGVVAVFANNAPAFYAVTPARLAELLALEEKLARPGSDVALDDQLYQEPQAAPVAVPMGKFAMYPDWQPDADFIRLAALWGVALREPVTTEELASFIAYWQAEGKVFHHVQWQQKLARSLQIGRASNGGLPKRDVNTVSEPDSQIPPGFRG

YgiG = biological target: T6, YgiG (E. coli K-12, UniProt P0AC16 1-122)
T6 construct: YgiG, E. coli K-12
T6 sequence (looked up): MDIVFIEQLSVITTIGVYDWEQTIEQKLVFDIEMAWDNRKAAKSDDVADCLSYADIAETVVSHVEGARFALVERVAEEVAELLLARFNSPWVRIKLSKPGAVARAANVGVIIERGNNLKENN

RfaD = biological target: T7, RfaD (E. coli K-12, UniProt P67910 1-310)
T7 construct: RfaD, E. coli K-12
T7 sequence (looked up): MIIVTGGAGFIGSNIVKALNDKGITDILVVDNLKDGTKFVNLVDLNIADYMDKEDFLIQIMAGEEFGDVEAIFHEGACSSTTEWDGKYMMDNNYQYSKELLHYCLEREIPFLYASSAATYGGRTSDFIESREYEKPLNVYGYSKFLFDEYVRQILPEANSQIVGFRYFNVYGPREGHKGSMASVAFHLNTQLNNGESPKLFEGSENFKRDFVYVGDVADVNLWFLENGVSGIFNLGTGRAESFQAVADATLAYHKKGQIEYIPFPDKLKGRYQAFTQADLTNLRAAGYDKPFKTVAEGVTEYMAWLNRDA

Measured: binding result

B1: N-terminal biotinylated Lactoferricin B (peptide, UniProt P24627 36-60, looked up)
peptide: Biotin-FKCRRWQWRMKKLGAPSITCVRRAF
modifications: ends and bridges not checked
notes: lactoferricin B (LfcinB), cationic antimicrobial peptide of 25 amino acids; also called biotinylated LfcinB; biotin-labeled LfcinB; source: bought: Kelowna Inc
binds: all assays above
